# Assay results from patent US20060246520A1, “Gamma delta t cell-mediated therapy” (INSTITUT NATIONAL DE LA SANTE ET DE LA RECHERCHE MEDICALE, priority 2003, published 2006).
# B1: M5L: bovine serum component immunopurified with M5 antibody, ~28 kDa, identified as apolipoprotein A-I (protein, UniProt P15497 25-265, looked up)
# Apolipoprotein A-I: DDPQSSWDRVKDFATVYVEAIKDSGRDYVAQFEASALGKQLNLKLLDNWDTLASTLSKVREQLGPVTQEFWDNLEKETASLRQEMHKDLEEVKQKVQPYLDEFQKKWHEEVEIYRQKVAPLGEEFREGARQKVQELQDKLSPLAQELRDRARAHVETLRQQLAPYSDDLRQRLTARLEALKEGGGSLAEYHAKASEQLKALGEKAKPVLEDLRQGLLPVLESLKVSILAAIDEASKKLNAQ
# What was measured:
# [1] = target: single binding receptor for apoA-I on Daudi cells; experiment: Scatchard analysis of 125I-labelled free apoA-I binding to Daudi cells, 2 h at 4° C.
# [2] = system: immobilized Vγ9Vδ2TCR; experiment: SPR: purified apolipoprotein binding to immobilized Vγ9Vδ2TCR; parameters: species or system human; details: soluble proteins injected at 100 μg/ml; immobilized TCR 335 RU
# Source text: FIG. 7. Surface plasmon resonance analysis. Soluble proteins were exposed to the sensorchip surface for 240 s (association phase) followed by a 240-s flow running (dissociation phase). Immobilized proteins were on sensorchips flowcell 2. Sensorgrams are representative of specific interactions (differential response) where non-specific binding that occurred on flow cell 1 (with no protein immobilized) was deduced from binding that occurred on flow cell 2. Results are expressed as resonance units (RU) as a function of time in seconds.
# (c) Comparative sensorgrams of purified apoA-I (full line) and apoA-II (dotted line) binding to immobilized Vγ9Vδ2TCR (proteins were injected at 100 μg/ml). Amount of immobilized TCRγδ protein was 335 RU on flow cell 2.
# ApoA-I and ATP synthase (F1 subunit) were immobilized by amine linkage on CM5 chips (Biacore AB) following NHS-EDC activation; Vγ9Vδ2-biotinylated soluble TCRs were immobilized on SA streptavidin-coated chips (Biacore AB) and binding was analyzed in a Biacore 3000 apparatus (BiacoreAB). Soluble ligands were injected at a flow rate of 20 μl/min, exposed to the surface for 240 s (association phase) followed by a 240-s flow running during which the dissociation occurred. […] Results are expressed as resonance units (RU) as a function of time in seconds.
# [3] = system: K562 cells; experiment: PE-labelled TCR tetramer staining of serum-depleted K562 cells incubated with apolipoproteins or competing mAb; format: cell-based, human; details: serum-depleted K562, apolipoprotein preparations 100 μg/ml
# Description: FIG. 3: Vγ9Vδ2 TCR binding to tumor cells and apoA-I. PE-labeled tetrameric TCRs from clone G115 and clone 73R9 were used to stain tumor cell lines and assess the influence of apolipoproteins on their tumor recognition. Shaded histograms: concentration-matched streptavidin-PE alone. Line histograms: binding of the indicated PE-labelled tetrameric TCR. (a) Cell lines were cultured in 10% fcs before staining with tetramers. (b) K562 cells were serum-depleted, incubated with 10% human serum or the indicated apolipoprotein preparations (100 μg/ml) and stained with G115 or 73R9 TCR tetramers. (c) Serum-depleted K562 cells were incubated with 100 μg/ml of HDL hApoA-I (left histogram) or hM5L (right histogram) and labeled with G115 TCR tetramers in the presence of the indicated competing mAb (20 μg/ml). […] Data are representative of three experiments.
# Immunofluorescence stainings were performed in PBS containing 1% BSA and devoid of serum using FITC-conjugated goat F(ab)′2 anti-mouse Ig antibody (Caltag) as the second step reagent. Irrelevant isotype-matched control antibodies were used as negative controls. In apolipoprotein binding experiments, serum-deprived cells were incubated with serum or purified protein preparations in PBS containing 1% BSA, at room temperature, 30 minutes prior to antibody staining. 7H10 (anti-α-ATP synthase) and 3D5 (anti-β-ATP synthase) and 7F9 (anti-γ-ATP synthase) are from Molecular Probes. 4H1 (anti-human apoA-I) (Collet et al., 1997) was obtained from Dr Y. Marcel (Ottawa).
# The G115 (Vγ9Vδ2) (3) and 73R9 (Vγ8Vδ3) extracellular γ and δ chains (the latter carrying a short 3′ Biotin tag) were expressed in Escherichia coli, then refolded together by rapid dilution in 1 L of 1 M L-arginine, 0.1 M Tris-HCl, pH 8.0 and 0.2 mM reduced/0.2 mM oxidized glutathione. After dialysis against 10 mM Tris-HCl pH 8.0, concentration by cation exchange chromatography at pH 5.5, and purification by size exclusion chromatography at pH 8.0, the refolded protein was biotinylated for 4 h at 30° C. with 6 μg/ml BirA and excess of free biotin was removed by dialysis against 10 mM Tris-HCl pH 8.0, 150 mM NaCl. Tetramers of γδ TCR heterodimers were obtained by mixing the biotinylated TCR with phycoerythrin-labeled streptavidin (Biosource) at a molar ratio of 10:1. For staining, 2.10^5 cells were incubated at room temperature for 45 min with phycoerythrin-labeled γδ TCR tetramers at a concentration of TCR of 30 μg/ml in PBS plus 1% BSA. Background staining was determined using phycoerytlrin-labeled streptavidin at the same concentration.
# [4] = system: Raji cells; experiment: 125I-labelled free apoA-I binding assay on Raji cells; parameters: species or system human; details: 2 hours at 4° C.
# Description: (§1) (e): ^125I-labelled free apoA-I binding was measured after 2 hours incubation at 4° C. on Daudi and Raji cells. Top and bottom panels: binding isotherm of ^125I-labeled free apoA-I to Daudi (top) and Raji (bottom) cells. (◯): total binding, (σ): non-specific binding; (●): specific binding. Middle panel: Scatchard representation of specific binding on Daudi cells.
# (§2) The binding experiments were performed at 4° C. for 2 hours as previously described (Barbaras et al., 1994). Briefly, cells (9 μg of cell proteins per point) were incubated in PBS for 2 hours at 4° C. with increasing concentrations of labeled apoA-I. Cells were filtered on 0.22 μm filters (GVWP Millipore-France) and washed four times with 1% BSA in PBS. Filters were used for radioactivity measurements. Non-specific binding was determined in the presence of a 100-fold excess (as compared to the KD value) of the corresponding unlabeled ligand. Binding was analyzed using a weighted non-linear curve-fitting program, based on the LIGAND analysis program (Prism-GraphPad).
# [5] = system: Vγ9Vδ2 T cells; experiment: TNFα secretion by T cell clones stimulated with protein-coated latex beads; format: cell-based, human; details: serum-free (sfm)
# Source text: FIG. 6: Induction of Vγ9Vδ2 T cell lymphokine secretion by immobilized ATP-synthase. HDL-derived apoA-I and ATP synthase were immobilized on latex beads and these were used to stimulate T cell populations. none: no stimulation; empty: beads saturated with BSA; apoA-I: beads coated with apoA-I only. AS: beads coated with the F1 extra-membrane subunit of bovine ATP synthase. AS/apoA-I: beads coated with both protein preparations.
# […] The capacity of γδ clones G25, G115, 73R9 to secrete significant amounts of TNFα upon stimulation was checked by using Daudi cells as target cells as well as PMA/ionomycin or PHA. The αβ clone A4.19 secretes saturating quantities of TNFα upon PMA/ionomycin or PHA stimulation (not shown). […]
# 2 h- ^51Cr-release assays were performed in standard conditions except for the use of serum-free conditions in some experiments: in sensitization experiments with apolipoprotein preparations, target tumor cells were serum-deprived as described for facs analysis, loaded with ^51Cr (100 μCi/10^6 cells, 1 hour, 37° C.), extensively washed in RPMI and resuspended in sfm medium. […] Specific lysis was calculated as the percentage of maximum release. […] IFNγ was titrated by a specific Elisa technique, whereas TNFα concentration was assessed by a biological assay based on WEHI cells viability. […]
# [6] = system: Daudi cells; experiment: 125I-labelled free apoA-I binding assay on Daudi cells (Scatchard); parameters: species or system human; details: 2 hours at 4° C.; single binding receptor; read-out: KD of binding to Daudi cells (Scatchard analysis)
# Description: as §1, §2
# [7] = target: purified bovine ATP synthase (F1 subunit) (bovine) (UniProt P19483); experiment: SPR (Biacore 3000), ATP synthase (F1) immobilized (22440 RU), TCR injected at 0.5 to 4 µM
# [8] = target: human lipid-free apoA-I prepared from high density lipoprotein particles (HDL-apoA-I) (human) (UniProt P02647); experiment: SPR (Biacore 3000), apoA-I immobilized (2260 RU), TCR injected at 125 nM to 2 µM
# Sequence of UniProt P02647 (P02647 25-267 limits assumed): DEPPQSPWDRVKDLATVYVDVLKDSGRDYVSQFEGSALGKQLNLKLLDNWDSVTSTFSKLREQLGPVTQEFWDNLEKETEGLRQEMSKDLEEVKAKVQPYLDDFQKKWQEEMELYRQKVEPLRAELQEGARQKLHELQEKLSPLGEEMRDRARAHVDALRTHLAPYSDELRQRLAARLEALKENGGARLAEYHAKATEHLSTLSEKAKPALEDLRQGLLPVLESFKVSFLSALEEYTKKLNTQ
# [9] = system: Daudi cells; experiment: 51Cr release assay of Daudi cytolysis by effector T cell clones in serum-free medium; format: cell-based, human; details: serum-depleted targets
# Description: FIG. 2: ApoA-I-dependent activation of Vγ9Vδ2 T cells. ^51Cr release assays were performed in serum-free medium (sfm) to assess dependance on serum and apoA-I of Daudi cytolysis by different effector T cell populations. G25 and G42: Vγ9Vδ2 T cell clones, 73R9: Vγ8Vδ3 T cell clone. M5L (bovine serum component immunopurified with M5 antibody) was tested at the indicated concentration for its ability to substitute for serum (fcs). Recombinant annexin V was used as a control purified protein.
# 2 h- ^51Cr-release assays were performed in standard conditions except for the use of serum-free conditions in some experiments: in sensitization experiments with apolipoprotein preparations, target tumor cells were serum-deprived as described for facs analysis, loaded with ^51Cr (100 μCi/10^6 cells, 1 hour, 37° C.), extensively washed in RPMI and resuspended in sfm medium. Effector T cells cultivated in serum-containing medium were washed extensively in RPMI, incubated for 2 hours in sfm at 37° C. and resuspended in sfm medium. […] Specific lysis was calculated as the percentage of maximum release. […] IFNγ was titrated by a specific Elisa technique, whereas TNFα concentration was assessed by a biological assay based on WEHI cells viability.
molecule,measurement,setting,value
human lipid-free apoA-I prepared from high density lipoprotein particles (HDL-apoA-I) (from UniProt P02647 25-267) (ligand),Kd,[1],80 nM
apolipoprotein A-I [apoA-I],interaction with immobilized G115 TCR,[2],specifically interacted
same,effect on Vγ9Vδ2 TCR tetramer binding to K562,[3],increased
same,effect on binding of Vγ8Vδ3 TCR tetramers to K562,[3],"neither serum, nor apoA-I, affected the binding"
same,specific binding on Raji cells,[4],absence of specific binding
same,stimulatory activity on Vγ9Vδ2 T cells in serum-free conditions,[5],relatively minor increase
same,Kd,[6],80 nM
"apoA-II: purified apolipoprotein A-II, control of hydrophobicity similar to that of apoA-I [reference compound]",effect on Vγ9Vδ2 TCR tetramer binding to K562,[3],did not enhance
"hM5L: human serum ligand of M5 mAb, immunopurified; identity to apoA-I confirmed",effect on Vγ9Vδ2 TCR tetramer binding to K562,[3],increased
soluble monomeric G115 TCR (Vγ9Vδ2),Kd,[7],1510 nM
same,koff,[7],0.00254 s⁻¹
same,kon,[7],1680 M⁻¹ s⁻¹
same,Kd,[8],810 nM
same,koff,[8],0.00713 s⁻¹
same,kon,[8],8800 M⁻¹ s⁻¹
B1,effect on Daudi cell lysis by control Vγ8Vδ3 T cell clone (#73R9),[9],neither affected by serum deprivation nor by addition of M5L
same,effect on Vγ9Vδ2 T cell-mediated lysis of Daudi cells,"[9]; Vγ9Vδ2 clones G25, G42",increased Vγ9Vδ2 T cell-mediated lysis in a dose-dependent manner
